Experimental data taken from the nanobody polyreactivity screen of Harvey et al. (2022).

Experiment: yeast display, Sf9 membrane polyspecificity reagent, FACS + sequencing; frameworks hold sequencing errors
How it was run: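 After 36–48 hours of galactose induction, yeast (Saccharomyces cerevisiae BJ5465) displaying a synthetic nanobody library were stained at 4 °C for 1 hour with 10% biotinylated, detergent-solubilized Sf9 membrane reagent. Streptavidin microbeads enriched the stained cells before FACS sorting into low and high (top ~1%) gates on anti-HA and streptavidin fluorescence. Each clone's polyreactivity label reflects its gate of origin.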

Row | Sequence | polyreactivity (PSR sort gate)
1 | QVQLVESGGGLVQAGGSLRLSCAASGRIFGTYAMGWYRQAPGKERELVARITRIGTRTYYADSVKGRFTISRDNAKNTVYLQMNSLKPEDTAVDYCAAGHYSYWVNTVKRYNTGYDYWGQGTQVTVSS | high polyreactivity
2 | QVQLVESGGGLVQAGGSLRLSCAASGRIFGTYAMGWYRQAPGKERELVATISYSSGRTYYADSVKGRFTISRDNAKNTVYFQMNSLKPEDTAVYYCARRRRSGSRQYYYWGQGTQVTVSS | high polyreactivity
3 | QVQLVESGGGLVQAGGSLRLSCAASGRIFGTYGMGWYRQAPGKERELVAAINWRGGSTYYADSVKGRFTISRDNAKNTVYLQMNSLKPEDTAVYYCNARLYRNRLGYWGQGTQVTVSS | high polyreactivity
4 | QVQLVESGGGLVQAGGSLRLSCAASGRIFGTYVMGWYRPAPGKERELVARITGGGSTNYADSVKGRFTISRDNAKNTVYLEMNSLKPEDTAVYYCARDYGPYLSPEKPAPMDYWGQGTQVTVSS | low polyreactivity
5 | QVQLVESGGGLVQAGGSLRLSCAASGRIFGVNAMGWYRQAPGKERELVAAIRYRDGSTYYADSVKGRFIISRDNAKNTVYLQMNSLKPEDTAVYYCNALHQRFYAQPGDYWGQGTQVTVSS | high polyreactivity
6 | QVQLVESGGGLVQAGGSLRLSCAASGRIFGVNAMGWYRQAPGKERELVAAISVSGDSTYYADSVKGRFTISRDNAKNTVYLQMNSLKPEDTAVYYCNAGYTFVPADLTDEYYWGQGTQVTVSS | low polyreactivity
7 | QVQLVESGGGLVQAGGSLRLSCAASGRIFGVNAMGWYRQAPGKERELVAVISSGGSTYYADSVKGRFTISRDNAKNTVYLQMNSLKPEDTAVYYCNAVVGRWFPYNLSDYWGQGTQVTVSS | low polyreactivity
8 | QVQLVESGGGLVQAGGSLRLSCAASGRIFGVNAMGWYRQEPGKERELVAAISAGGGNTYYADSVKGRFTISRDNAKNTVYLQMNSLKPEDTAVYYCNVHRSLRMDYWGQGTQVTVSS | high polyreactivity
9 | QVQLVESGGGLVQAGGSLRLSCAASGRIFGVYAMGCYRQATGKERELVATNTSGGSTSYADSVKGRFTISRDNAKNPVYLQMNSLKPEDTAVYYCNAPYSFFWQQMNYWGQGTQETVSS | low polyreactivity
10 | QVQLVESGGGLVQAGGSLRLSCAASGRIFGVYAMGWSRQAPGKERELGAGITDRGGRTYYADSVKGRFTISRDNAKNTVYLQMNSLKPEDTAVYYCNAGSLHRRYYYEGDYWGQGTQVTVSS | high polyreactivity
11 | QVQLVESGGGLVQAGGSLRLSCAASGRIFGVYAMGWYRQAPGKERELVAAISEGGGSTNYADSVKGRFTISRDNAKNTVYLQMNSLKPEDTAGYYCAATYRTGVRRYYSWGQGTQVTVSS | low polyreactivity
12 | QVQLVESGGGLVQAGGSLRLSCAASGRIFGVYAMGWYRQAPGKERELVAAISSTGGSTYYADSVKGRFTISRDNAKNTVYLQMNSLKPEDTAVYYCEYDYWGQGTQVTVSS | low polyreactivity
13 | QVQLVESGGGLVQAGGSLRLSCAASGRIFGVYAMGWYRQAPGKERELVAAIYSGSSTYYADSVKGRFTISRDNAKNTVYLHMNSLKPEDTAVYYCAAVSRDDNYQDYYYWGQGTQVTVSS | low polyreactivity
14 | QVQLVESGGGLVQAGGSLRLSCAASGRIFGVYTMGWYRQAPGKERELVAVISRRGGRTYYADSVKGRFTISRDNAKNTVYLQMNSLKPEDTAVYYCARDSTYSSYTSNDYWGQGTQVTVSS | high polyreactivity
15 | QVQLVESGGGLVQAGGSLRLSCAASGRIFGVYVMGWYRQAPGKEREFVAAITWSGGRTYYADSVKGRFTISRDNAKNTVYLQMNSLKPEDTAVYYCAARRRYEYDYWGQGTQVTVSS | high polyreactivity
16 | QVQLVESGGGLVQAGGSLRLSCAASGRIFGWYAMGWYRQAPGKERELVAAIRWSGGSTYADSVKGRFTISRDNAKNTVYLQMNSLKPEDTAVYYCAATYGSYRGVRYYWGQGTQVTVSS | high polyreactivity
17 | QVQLVESGGGLVQAGGSLRLSCAASGRIFGWYAMGWYRQAPGKERELVAAISRSGGSTYYADSVKGRFTISRDNAKNTVYLQMNSLKPEDTAVCYCAAAFSLGMYWGQGTQVTVSS | high polyreactivity
